Assay results as given in article PMC6156607.

Molecular target: Full-length human RAB5 (RAB5A), purified, fluorescently labelled (human) (UniProt P20339)
Assay: MST

UniProt P20339, sequence (P20339 whole entry): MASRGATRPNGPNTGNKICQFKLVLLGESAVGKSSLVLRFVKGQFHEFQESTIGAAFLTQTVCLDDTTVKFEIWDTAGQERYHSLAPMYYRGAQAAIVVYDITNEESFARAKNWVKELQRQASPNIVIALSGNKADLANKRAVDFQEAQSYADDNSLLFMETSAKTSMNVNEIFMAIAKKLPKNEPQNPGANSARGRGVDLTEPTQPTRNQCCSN

Kd: 21.3 nM
Substance: 6x His-tagged Etf-2^ΔHY (Etf-2 lacking the hydrophobic domain, amino acids 132-151) (natural protein)
